The values below are quoted from earlier work in article PMC7150914.

Data set [1] concerns the target PSP94 (β-microseminoprotein) (Homo sapiens) (UniProt P08118).
Data set [2] concerns the target α-1B glycoprotein (Homo sapiens) (UniProt P04217).
For data set [3], the target named is CNGA2 (Rattus norvegicus) (UniProt Q00195).
In a further data set the target is CNGA1 (Bos taurus) (UniProt Q00194).
UniProt Q00194, sequence (Q00194 whole entry): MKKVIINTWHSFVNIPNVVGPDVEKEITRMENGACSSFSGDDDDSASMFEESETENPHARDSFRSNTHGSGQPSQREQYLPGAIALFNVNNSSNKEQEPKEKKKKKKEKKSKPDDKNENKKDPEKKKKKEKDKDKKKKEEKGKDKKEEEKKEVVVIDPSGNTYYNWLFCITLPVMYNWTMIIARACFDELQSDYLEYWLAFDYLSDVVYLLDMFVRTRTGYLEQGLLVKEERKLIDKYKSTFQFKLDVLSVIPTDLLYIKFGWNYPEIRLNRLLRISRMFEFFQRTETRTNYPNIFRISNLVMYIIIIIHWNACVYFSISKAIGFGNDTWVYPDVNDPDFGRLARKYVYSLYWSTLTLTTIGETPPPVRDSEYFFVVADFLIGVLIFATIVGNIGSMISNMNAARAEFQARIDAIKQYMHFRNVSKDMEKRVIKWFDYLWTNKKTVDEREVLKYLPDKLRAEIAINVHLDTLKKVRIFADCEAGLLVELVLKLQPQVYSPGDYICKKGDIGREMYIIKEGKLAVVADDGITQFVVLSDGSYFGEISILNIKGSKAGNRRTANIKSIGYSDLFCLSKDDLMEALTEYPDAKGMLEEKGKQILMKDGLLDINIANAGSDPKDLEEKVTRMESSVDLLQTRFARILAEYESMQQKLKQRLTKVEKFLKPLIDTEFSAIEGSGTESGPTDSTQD

UniProt Q00195, sequence (Q00195 whole entry): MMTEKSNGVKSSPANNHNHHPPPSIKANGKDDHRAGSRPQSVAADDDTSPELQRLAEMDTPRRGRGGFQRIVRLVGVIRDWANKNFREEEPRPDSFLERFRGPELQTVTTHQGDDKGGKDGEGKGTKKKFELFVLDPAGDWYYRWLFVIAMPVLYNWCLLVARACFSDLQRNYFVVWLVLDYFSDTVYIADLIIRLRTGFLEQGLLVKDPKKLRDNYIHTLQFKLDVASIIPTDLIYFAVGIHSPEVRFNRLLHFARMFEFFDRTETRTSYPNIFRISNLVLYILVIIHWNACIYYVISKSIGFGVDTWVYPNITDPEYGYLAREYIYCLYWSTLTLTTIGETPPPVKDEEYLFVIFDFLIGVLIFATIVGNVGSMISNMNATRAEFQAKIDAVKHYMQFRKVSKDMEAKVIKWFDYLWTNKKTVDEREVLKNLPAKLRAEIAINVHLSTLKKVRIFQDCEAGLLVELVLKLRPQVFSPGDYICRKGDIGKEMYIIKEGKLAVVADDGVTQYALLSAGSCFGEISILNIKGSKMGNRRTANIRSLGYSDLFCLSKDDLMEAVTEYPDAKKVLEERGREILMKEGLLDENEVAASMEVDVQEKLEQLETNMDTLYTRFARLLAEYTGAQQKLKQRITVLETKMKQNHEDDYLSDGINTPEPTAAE
UniProt P04217, sequence (P04217 22-495): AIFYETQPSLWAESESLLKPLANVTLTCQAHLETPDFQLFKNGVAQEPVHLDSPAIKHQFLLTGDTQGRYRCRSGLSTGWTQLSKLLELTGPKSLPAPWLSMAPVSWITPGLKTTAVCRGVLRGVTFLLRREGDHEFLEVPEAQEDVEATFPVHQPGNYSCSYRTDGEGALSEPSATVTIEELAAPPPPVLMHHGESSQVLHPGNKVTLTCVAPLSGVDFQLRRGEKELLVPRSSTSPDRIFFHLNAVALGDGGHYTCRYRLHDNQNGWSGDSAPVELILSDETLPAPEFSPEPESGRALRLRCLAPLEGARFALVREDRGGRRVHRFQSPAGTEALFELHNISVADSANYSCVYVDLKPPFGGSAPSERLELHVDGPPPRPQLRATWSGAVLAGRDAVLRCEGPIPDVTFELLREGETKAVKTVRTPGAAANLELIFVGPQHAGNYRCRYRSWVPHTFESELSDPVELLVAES
UniProt P08118, sequence (P08118 21-114): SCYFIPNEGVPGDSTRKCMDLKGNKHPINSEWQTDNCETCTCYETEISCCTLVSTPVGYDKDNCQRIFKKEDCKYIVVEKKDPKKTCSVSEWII

In the case of CRISP-3 (from UniProt P54108), the Kd in data set [1] was 0.0628 nM; in data set [2] it was 2.8 nM.

“Pseudechetoxin (PsTx) (from UniProt Q8AVA4)”: the Ki was 15 nM in data set [3] and 70 nM with CNGA1 (Bos taurus).
